Values of other authors, collected in patent US7468440B2, “Malonamides and malonamide derivatives as modulators of chemokine receptor activity” (Bristol-Myers Squibb Company, priority 2003, dated 2008).

System: MCP-1 expression
Conditions: human multiple sclerosis, effective therapy

B1: interferon b-1b: interferon b-1b, effective therapy in human multiple sclerosis (protein, UniProt P01574 22-187, looked up, variant C17S)
Interferon beta: MSYNLLGFLQRSSNFQSQKLLWQLNGRLEYCLKDRMNFDIPEEIKQLQQFQKEDAALTIYEMLQNIFAIFRQDSSSTGWNETIVENLLANVYHQINHLKTVLEEKLEKEDFTRGKLMSSLHLKRYYGRILHYLKAKEYSHCAWTIVRVEILRNFYFINRLTGYLRN
modifications: interferon beta-1b
effect on MCP-1 expression in peripheral blood mononuclear cells: reduces MCP-1 expression
